Source: the supplement of paper PMC9170038

Tested on: MS2 coat protein
Experiment: apparent KD of MS2 coat protein; higher = weaker reporter binding
Conditions: Eterna round: R107
How it was run: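 Designed RNA switches were transcribed on-chip from Illumina sequencing clusters. They were then titrated with SNAP-549-labelled MS2 coat protein (twofold steps, 0.7 or 1.5 nM to 3 µM; 0.8–1.5 h to 10–20 min per step) in 100 mM Tris-HCl pH 7.5, 80 mM KCl, 4 mM MgCl2, without or with constant ligand. Apparent KD is the per-design median of normalised cluster binding-curve fits.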

[1] = input ligand: theophylline 20 uM
[2] = input ligand: tryptophan 2.4 mM
[3] = input ligand: theophylline 2 mM

Sequence | apparent KD of MS2 coat protein (input ligand: arginine 13.2 mM) [nM] | apparent KD of MS2 coat protein [1] [nM] | apparent KD of MS2 coat protein [2] [nM] | apparent KD of MS2 coat protein [3] [nM] | apparent KD of MS2 coat protein (input ligand: none) [nM]
GAGCGCAGUUUACAACAUACUAACACAGAUACCAGAAAUUUUAUGUUCCCUUGGCAGCUGACAACAUGAGGAUCACCCAUGUGCU [theeternabot_exclusion_MS2_Theo_A_27] | 17.5 | 21.2 | 15.7 |  | 
GAGCUGAUGUAGGGUGGAUAUCCUUGAGAUACCAGUACAGAAAUGUACCCUUGGCAGCUCUUCCUUACAUGAGGAUCACCCAUGU [Ex Theophylline A 25] | 18.9 | 23.5 | 20.4 |  | 
GAGUAGAAGACGGCCGCCACUAAACAUGAGGAUCACCCAUGUCGUGAUCCGUUACCUAGAGUAGAUAGGACCGGGUCAUAUAGUC [Exclusion Tryptophan B GF 15] | 27.5 | 41.5 |  | 30.2 | 
GAGUUCCUGAGAGAUACCAGUGAAGCCACAUGAGGAUCACCCAUGUCCCUCACUCCGGCCCACCCUUGGCAGCUCGAAAGAUGGA [Exclusion Theophylline B GF 21] | 83.7 | 132 | 141 | 403 | 105
GAGUUCCUGAGAGAUACCAGUGAGGCCACAUGAGGAUCACCCAUGUCCCUCACUCCGGCCCACCCUUGGCAGCUCGAAAGAUAUU [Exclusion Theophylline B GF 22] | 11.3 | 16.7 | 12.1 |  | 
GAUACCAUGAUCCUCCUGGUAUCGGCUGAUACCAGCCAGCUGACUGGCCCUUGGCAGCAGCAUACAUGAGGAUCACCCAUGUUAA [(T)''-(M)'-(T)'-(Theo)-(Ms2)_Design4] | 35.4 | 163 | 61 |  | 
GAUAGUUGAUGGGAUACCAGCCUACACAUGAGGAUCACCCAUGUGAUUCGUGUACGACUGGGCCCUUGGCAGCCCAUAUUGUGUA [#12 Same State - Theophylline B] | 46.1 | 202 | 128 |  | 
GAUAUACGUGCGGCCGCCACUGAGUGGCGGGCGUGUCGAGUUACAUGAGGAUCACCCAUGUCACUCAGGACCGGGCACGGAAUUU [Soveri] | 7.64 | 14.1 |  | 11 | 
GAUAUAUAACGAAGGAGCGGCCCUUGAUCCUCAUGAGACAUGAGGAUCACCCAUGUCUCGGGCCAGGUAGGUCGCGUUAUAUAUC [Astros-omei-mod] | 26.6 | 31.4 | 24.4 | 27.9 | 21.5
GAUAUGAUAAGAAGGAGCGUCGAAAAUGGGUAAACAUGAGGAUCACCCAUGUAAAGGGAACGACAGGUAGGUCGCUUAUUAUAUC [AstromonsSSArgB#19] | 146 | 190 | 134 | 251 | 160
GAUCGAAAUAACGUCUAGGAAAACUAGACGCGAGGACCGGUACGGCCGCCACUCGGGUGGCACAUGAGGAUCACCCAUGUAGAUC [#SwitchBubble 5 #GuTurnoff #MS2 3'] | 69.4 | 110 |  | 100 | 
GAUGAACUAUAUGAUACCAGACAACAUGAGGAUCACCCAUGUGAUAGUCGUCCUCUGCCUGUCCCUUGGCAGCGUAUAGUUUAUC [XTheo B #19] | 30.7 | 74.7 | 21.2 |  | 
GAUGAACUAUAUGAUACCAGACAACAUGAGGAUCACCCAUGUGUAUGUCGUCCUCUGCCUGUCCCUUGGCAGCGUAUAGUUUAUC [XTheo B #17] | 36.8 | 70.1 | 16.1 |  | 
GAUGAACUAUUUGAUACCAGACAACAUGAGGAUCACCCAUGUGCGCGUCGUCCUCUGCCUGUCCCUUGGCAGCGGAUAGUUUAUC [XTheo B #12] | 32.5 | 124 | 34.9 |  | 
GAUGAUAUUGCAGAUACCAGACACAUGAGGAUCACCCAUGUCGUUGGGUCGCUGGGUCGUGUCCCUUGGCAGCUGCGAUAUCAUC [#04 Exclusion-TheophyllineB] | 28 | 52.6 | 31 |  | 
GAUUAAACAUGAGGAUCACCCAUGUAUAUACGAGGACCGGUACGGCCGCCACUCGUAAACGAGUAUCCUCGAAUAAACAUGAUAA [AK 2.1 SS Trypt (A)] | 44 | 113 |  | 182 | 
GAUUACAUGAGGAUCACCCAUGUAACUGAAGGAGCGGUAAUAAAGCCAGGUAGGUCGCGGAACAACAUGUGGAUCACCCAUGUAA [#13 Exclusion - Arginine A] | 33.7 | 51.6 | 32.7 | 43.7 | 43.5
GCACAAGAUGGAAGGAGCGCUGGUAAAAGUCACAUGAGGAUCACCCAUGUGCUCCUUGCCGAGCAGGUAGGUCGCCAUCUUGUGC [SSAB NP+V+V2 #4] | 19.5 | 31.8 | 29.8 | 33.2 | 27.8
GCACAUGAGGAUCACCCAUGUACAACUGAAGGAGCGAGACAGAACUCAGGUAGGUCGCAGACUGCACAAUUGCGGACGACAUGGG [Exclusion Arginine A GF21] | 25.8 | 44.1 | 30.1 | 40.9 | 34.2
GCACCAGGUACGGAUACCAGAGCAAGCCAAAUGAGUGAACUUGAGGAUCACCCAAGUUUGCUCCCUUGGCAGCCGUACCUGGUGC [ETB NP+V+V2 #12 Diff Apt, +-Same Structure] | 7.29 | 11.4 | 8.49 | 29.2 | 9.39
GCACUACAUGAGGAUCACCCAUGUGCAGAUACCAGAGGUGUAUGCCUCCCUUGGCAGCUGAGUAGGUCUGGAGGGCUAUUGGUUU [Same State Theophylline A GF14] | 17.8 | 27.8 | 18.2 |  | 
GCAUCCUAGUCGGCCGCCACUGCAAUUGUAAUACUGCUACAUGAGGAUCACCCAUGUCCAUGUAGCAGGACCGGGACUAGGAUGC [SS Tryp B #16] | 142 | 728 |  | 1240 | 
GCAUCCUAGUCGGCCGCCACUGCACGAUCAGUGGCAGAUCGUCAACAUGAGGAUCACCCAUGUAGCAGGACCGGGACUAGGAUGC [(Trp1)-(TM)''-(TM)'-(Ms2)-(Trp2)_Design3] | 18.5 | 21.9 |  | 20.9 | 
GCAUUAUUAUUAGAUACCAGUGUCGCAGGCGACAUGAGGAUCACCCAUGUAAAGUUACUCCACCCUUGGCAGCUAGUUCGACUAC [theeternabot_sameState_MS2_Theo_B_21] | 56 | 124 | 101 |  | 
GCCAUCGGCGAAAGCCGAUGGUAUACAGAAGGAGCGCACGAAAGUGCAGGUAGGUCGCUGAACAUGAGGAUCACCCAUGUAAUAA [#29 Same State - Arginine A] | 19.6 | 24.9 | 19.4 | 22.9 | 20.2
